Data on 15 molecules can be found in patent US20240245793A1 (UNIVERSITY OF COPENHAGEN, published 2024).

Like-named read-outs stand apart in the source and are kept apart here. No end group written: not given here. OPEG4 = PEG4 linker (Xa = -O-, formula XXVI) joining two peptide copies; NPEG4 = not defined here

Assay in all cases: FP competition against fluorescent dimeric probe, Ki from IC50
The target in assay [1] is T1, PDZ1-2 of PSD-95 (postsynaptic density protein-95) (UniProt P78352 61-249, limits assumed).
T1 construct: domain: PDZ1-2; also called PSD-95 PDZ1-2; PSD-95 PDZ12
T1 sequence (P78352 61-249 limits assumed): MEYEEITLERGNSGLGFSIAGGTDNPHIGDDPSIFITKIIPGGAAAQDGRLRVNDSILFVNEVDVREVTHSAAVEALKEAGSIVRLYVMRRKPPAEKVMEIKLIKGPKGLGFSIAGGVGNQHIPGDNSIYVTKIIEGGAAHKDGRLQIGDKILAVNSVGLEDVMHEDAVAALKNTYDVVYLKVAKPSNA

Assay [2] addresses T1, PDZ1-2 of PSD-95 (postsynaptic density …). This is another data set of the same source.
Assay [3] shares this target. This is another data set of the same source.
Assay [4] has the same target. This is another data set of the same source.

B1: compound 31, NPEG4-(ISTDV)2 fused to L-Arg9 (Ac-RRRRRRRRR-) (peptide)
peptide: ISTDV
chain: Ac-RRRRRRRRR
modifications: not fully specified (N-terminus, C-terminus); also: dimer: two copies bridged at N-termini by NPEG4, Arg9 C-terminus on NPEG4 nitrogen
notes: Branched compound CPP-NPEG4-(P1)(P2), formula (XXVIII); also called formula (XXI)
For the molecule B1, in assay [1], the Ki – broadly, a measure of affinity in units of concentration, obtained from inhibition or displacement – stood at 62.3 nM.

B2: compound 73, NPEG4-(KETLV)2 fused to L-Arg4 (Ac-RRRR-) (peptide)
peptide: NPEG4-KETLV
chain: Ac-RRRR-NPEG4
modifications: reading uncertain; also: two KETLV copies joined at their N-termini by the NPEG4 linker, CPP C-terminus linked to the NPEG4 nitrogen, printed as NPEG4-(KETLV)2 fused to L-Arg4 (Ac-RRRR-)
In assay [2], B2 registered a Ki of 11.1 nM. That is a double-digit nanomolar value.

B3: compound 71, NPEG4-(KETLV)2 fused to L-Arg5 (Ac-RRRRR-) (peptide)
peptide: NPEG4-KETLV
chain: Ac-RRRRR-NPEG4
modifications: reading uncertain; also: two KETLV copies joined at their N-termini by the NPEG4 linker, CPP C-terminus linked to the NPEG4 nitrogen, printed as NPEG4-(KETLV)2 fused to L-Arg5 (Ac-RRRRR-)
notes: Branched compound CPP-NPEG4-(P1)(P2), formula (XXVIII)
For B3, in assay [2], the Ki was found to be 10.9 nM.

B4: compound 27, NPEG4-(KETVV)2 fused to L-Arg9 (Ac-RRRRRRRRR-) (peptide)
peptide: KETVV
chain: Ac-RRRRRRRRR
modifications: not fully specified (N-terminus, C-terminus); also: dimer: two copies bridged at N-termini by NPEG4, Arg9 C-terminus on NPEG4 nitrogen
notes: Branched compound CPP-NPEG4-(P1)(P2), formula (XXVIII); also called formula (XIX)
On to B4, for which the inhibitory constant (Ki) in assay [1] is 6.3 nM.

B5: compound 29, NPEG4-(KETRV)2 fused to L-Arg9 (Ac-RRRRRRRRR-) (peptide)
peptide: KETRV
chain: Ac-RRRRRRRRR
modifications: not fully specified (N-terminus, C-terminus); also: dimer: two copies bridged at N-termini by NPEG4, Arg9 C-terminus on NPEG4 nitrogen
notes: Branched compound CPP-NPEG4-(P1)(P2), formula (XXVIII); also called formula (XX)
Turning to B5, the Ki in assay [1] worked out at 10.1 nM.

B6: compound 25, NPEG4-(KETTV)2 fused to L-Arg9 (Ac-RRRRRRRRR-) (peptide)
peptide: KETTV
chain: Ac-RRRRRRRRR
modifications: not fully specified (N-terminus, C-terminus); also: dimer: two copies bridged at N-termini by NPEG4, Arg9 C-terminus on NPEG4 nitrogen
notes: Branched compound CPP-NPEG4-(P1)(P2), formula (XXVIII); also called formula (XVIII)
B6 yielded a Ki in assay [1] of 5.6 nM.

B7: compound 33, NPEG4-(VETVV)2 fused to L-Arg9 (Ac-RRRRRRRRR-) (peptide)
peptide: VETVV
chain: Ac-RRRRRRRRR
modifications: not fully specified (N-terminus, C-terminus); also: dimer: two copies bridged at N-termini by NPEG4, Arg9 C-terminus on NPEG4 nitrogen
notes: also called formula (XXII)
B7 registered a Ki in assay [1] of 19.9 nM. This Ki lies about 3.6-fold higher than the previous one.

B8: compound 67, NPEG4-(KETLV)2 fused to L-Arg7 (Ac-RRRRRRR-) (peptide)
peptide: NPEG4-KETLV
chain: Ac-RRRRRRR-NPEG4
modifications: reading uncertain; also: two KETLV copies joined at their N-termini by the NPEG4 linker, CPP C-terminus linked to the NPEG4 nitrogen, printed as NPEG4-(KETLV)2 fused to L-Arg7 (Ac-RRRRRRR-)
notes: as for B3
In turn, B8 returned a Ki in assay [2] of 5.8 nM. In other words, the single-digit nanomolar range.

B9: compound 52, NPEG4-(IETDV)2 fused to L-pVEC (Ac-LLIILRRRIRKQAHAHSK-) (peptide)
peptide: NPEG4-IETDV
chain: Ac-LLIILRRRIRKQAHAHSK-NPEG4
modifications: reading uncertain; also: two IETDV copies joined at their N-termini by the NPEG4 linker, CPP C-terminus linked to the NPEG4 nitrogen, printed as NPEG4-(IETDV)2 fused to L-pVEC (Ac-LLIILRRRIRKQAHAHSK-)
notes: as for B3
Consider B9, for which, in assay [3], the Ki came to 13.3 nM.

B10: compound 4, OPEG4-(KETVV)2 (peptide)
peptide: OPEG4-KETVV
modifications: also: dimer: two copies bridged at N-termini by OPEG4
notes: Dimer of formula (XXXI), P1 = P2, no CPP
In assay [4], B10 registered a Ki of 15.8 nM.

B11: compound 7, OPEG4-(VETVV)2 (peptide)
peptide: OPEG4-VETVV
modifications: also: dimer: two VETVV copies joined at their N-termini by the OPEG4 linker
notes: Dimer of formula (XXXIV), P1 = P2, no CPP
On to B11, for which, in assay [4], affinity was put at a Ki of 17 nM.

B12: compound 5, OPEG4-(KETRV)2 (peptide)
peptide: OPEG4-KETRV
modifications: also: dimer: two KETRV copies joined at their N-termini by the OPEG4 linker
notes: Dimer of formula (XXXII), P1 = P2, no CPP
As for B12, affinity in assay [4] was put at a Ki of 53.2 nM. This Ki lies about 3.1-fold higher than the previous one.

B13: compound 2, OPEG4-(KETLV)2 (peptide)
peptide: OPEG4-KETLV
modifications: also: dimer: two copies bridged at N-termini by OPEG4
notes: Dimer of formula (XXIX), P1 = P2, no CPP
Turning to B13, the affinity in assay [4] corresponds to a Ki of 11.1 nM.

B14: compound 50, NPEG4-(IETDV)2 fused to L-DPV3 (Ac-RKKRRRESRKKRRRES-) (peptide)
peptide: NPEG4-IETDV
chain: Ac-RKKRRRESRKKRRRES-NPEG4
modifications: reading uncertain; also: two IETDV copies joined at their N-termini by the NPEG4 linker, CPP C-terminus linked to the NPEG4 nitrogen, printed as NPEG4-(IETDV)2 fused to L-DPV3 (Ac-RKKRRRESRKKRRRES-)
notes: as for B3
As to B14, the Ki in assay [3] came out at 16.6 nM. This counts as double-digit nanomolar.

B15: compound 6, OPEG4-(ISTDV)2 (peptide)
peptide: OPEG4-ISTDV
modifications: also: dimer: two ISTDV copies joined at their N-termini by the OPEG4 linker
notes: Dimer of formula (XXXIII), P1 = P2, no CPP
B15 had a Ki in assay [4] of 53.1 nM.
